Test results from PMC4424056 (Nature structural & molecular biology, 2015).

B2: β3-CT L717K-L718K mutant (domain or fragment, human, UniProt P05106 742-788, looked up)
chain: KKKITIHDRKEFAKFEEERARAKWDTANNPLYKEATSTFTNITYRGT
B3: integrin αIIb cytoplasmic tail (αIIb CT, W988-E1008) (peptide, UniProt P08514 1019-1039, looked up)
chain: WKVGFFKRNRPPLEEDDEEGE
B5: integrin β3 cytoplasmic tail (β3 CT, K716-T762) (domain or fragment, human, UniProt P05106 742-788, looked up)
chain: KLLITIHDRKEFAKFEEERARAKWDTANNPLYKEATSTFTNITYRGT

Columns and labels:
[1] = target: B3; test: SPR
[2] = target: T1, filamin A immunoglobulin repeat 21 (FLNa-Ig21) (human, UniProt P21333 2236-2330); test: SPR
T1 sequence: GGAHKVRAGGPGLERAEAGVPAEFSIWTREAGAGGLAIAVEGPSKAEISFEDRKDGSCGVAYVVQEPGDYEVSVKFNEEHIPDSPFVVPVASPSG

[3] = target: T1, filamin A immunoglobulin repeat 21 …; test: NMR titration
[4] = target: B5
[5] = target: T2, FLNa-Ig21 pre-saturated β3-CT (human, UniProt P21333 2236-2330; P05106 742-788); test: SPR
T2 sequence 1: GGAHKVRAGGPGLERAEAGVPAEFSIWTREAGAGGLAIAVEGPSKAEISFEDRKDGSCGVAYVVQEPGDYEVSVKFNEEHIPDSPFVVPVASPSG
T2 sequence 2: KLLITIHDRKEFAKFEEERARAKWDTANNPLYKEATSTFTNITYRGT

FLNa-Ig21 A2268K = target: T3, FLNa-Ig21 A2268K (human, UniProt P21333 2236-2330, A2268K); test: NMR titration
T3 sequence: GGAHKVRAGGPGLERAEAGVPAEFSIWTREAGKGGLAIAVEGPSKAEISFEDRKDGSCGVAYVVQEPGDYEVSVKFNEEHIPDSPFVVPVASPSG

[6] = target: T4, GST-FLNa-Ig21-β3 CT chimera (human, UniProt P05106 742-788; P21333 2236-2330); test: pull-down
T4 chain: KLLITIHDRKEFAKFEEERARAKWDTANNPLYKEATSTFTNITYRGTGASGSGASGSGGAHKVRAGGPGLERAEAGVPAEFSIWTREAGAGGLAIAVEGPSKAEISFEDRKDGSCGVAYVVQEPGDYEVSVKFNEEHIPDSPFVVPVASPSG

β3-CT L717K-L718K mutant = target: B2; test: NMR structure
[7] = target: B5; test: NMR titration
[8] = target: T5, β3 transmembrane-cytoplasmic domain (β3 TMCD, K689-T762) (human, UniProt P05106 715-788); test: NMR titration
T5 sequence (looked up): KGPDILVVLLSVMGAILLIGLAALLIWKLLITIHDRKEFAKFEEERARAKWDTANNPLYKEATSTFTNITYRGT

FLNa-Ig21 E2276A = target: T6, FLNa-Ig21 E2276A (human, UniProt P21333 2236-2330, E2276A); test: NMR titration
T6 sequence: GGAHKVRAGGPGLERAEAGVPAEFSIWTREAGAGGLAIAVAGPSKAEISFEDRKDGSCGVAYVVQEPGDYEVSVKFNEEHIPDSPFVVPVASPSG

B1: FLNa-Ig21-β3-CT chimera (other, human)
chain: KLLITIHDRKEFAKFEEERARAKWDTANNPLYKEATSTFTNITYRGTGASGSGASGSGGAHKVRAGGPGLERAEAGVPAEFSIWTREAGAGGLAIAVEGPSKAEISFEDRKDGSCGVAYVVQEPGDYEVSVKFNEEHIPDSPFVVPVASPSG
[1]
  Kd: ~19 µM

## KLLITIHDRKEFAKFEEERARAKW (peptide, UniProt P05106 742-765, looked up) [integrin β3 membrane-proximal fragment β3-N (K716-W739)]
[2]
  Kd: ~223 µM

## B2
[3]
  binding result: binds

## B3
[4]
  Kd: ~368 µM
[5]
  binding result: binds
FLNa-Ig21 A2268K
  binding result: binds
[6]
  binding result: binds
β3-CT L717K-L718K mutant
  binding result: binds

## WKVGFFERNEPPLEEDDEEGE (peptide, UniProt P08514 1019-1039, looked up) [αIIb CT K994E-R997E mutant]
[7]
  binding result: binds

B4: αIIb transmembrane-cytoplasmic domain (αIIb TMCD, E960-E1008) (domain or fragment)
chain: not shown
[8]
  binding result: binds

## B5
FLNa-Ig21 E2276A
  binding result: binds
[3]
  binding result: binds
